Assay results: patent US20050208041A1 (Bristol-Myers Squibb, published 2005)
Numbering of substitutions follows the chain as printed. Like-named read-outs stand apart in the source and are kept apart here.

Experiments:
[1] = molecular target: T1, purified recombinant IFNAR-1 extracellular fragment (human, UniProt P17181 28-436); test: Biacore, antibody on immobilized soluble IFNAR-1, maximal response, mean of four
T1 construct: extracellular domain; also called soluble IFNAR-1; soluble IFNAR
T1 sequence (looked up): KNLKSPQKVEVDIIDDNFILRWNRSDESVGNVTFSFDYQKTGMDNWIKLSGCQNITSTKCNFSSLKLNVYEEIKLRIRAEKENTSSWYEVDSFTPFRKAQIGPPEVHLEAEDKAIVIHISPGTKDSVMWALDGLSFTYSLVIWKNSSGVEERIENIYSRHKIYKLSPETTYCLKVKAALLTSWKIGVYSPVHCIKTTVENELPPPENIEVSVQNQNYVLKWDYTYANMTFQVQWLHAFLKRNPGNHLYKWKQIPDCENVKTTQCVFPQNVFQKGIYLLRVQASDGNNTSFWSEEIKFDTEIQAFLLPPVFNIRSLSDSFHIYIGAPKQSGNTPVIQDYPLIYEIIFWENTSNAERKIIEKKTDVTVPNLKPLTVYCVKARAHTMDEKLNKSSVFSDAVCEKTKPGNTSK
Method: Additional combination variants heavy chain DI M3-B and light chain DI K1-C were also made. These combination variants were also tested for binding to IFNAR-1. […] Binding analysis was done by Biacore, with the antibody bound to immobilized soluble IFNAR-1. Maximal response was determined at two concentrations and values shown are mean of four determinations.

[2] = molecular target: T1, purified recombinant IFNAR-1 …; test: Biacore, response on IFNAR-1 (flow cell 2) divided by response on anti-human IgG Fc (flow cell 4)
Excerpt: A series of antibodies were constructed with reduced numbers of potential T-cell epitopes. These included heavy chain variants M3-A and M3-B in which residues were changed in CDR regions and DI M3 in which framework residues were altered. De-immunized light chains were also constructed termed K1-C, K1-D, K1-E and DI K1. The antibodies were expressed and purified before analysis by Biacore. A Biacore chip was used with IFNAR-1 coated on Flow cell 2 at 690 RU and anti-human IgG Fc on flow cell 4 at 5000 RU. Binding of the antibody to IFNAR-1 relative to anti-human IgG Fc was determined by the ratio of response at flow cell 2 divided by flow cell 4 (Fc2/Fc4).

[3] = molecular target: T1, purified recombinant IFNAR-1 …; test: Biacore, maximal association on IFNAR-1 relative to M3K1
Excerpt: (§1) Pools 4 and 11 were selected for further study and the individual antibodies in each pool were produced and expressed separately. The sequences of these individual antibodies were as shown in SEQ ID NO:12 of FIG. 1F and SEQ ID NO: 13 of FIG. 1G. The data is presented as maximal association relative to M3K1. […]

[4] = molecular target: T1, purified recombinant IFNAR-1 …; test: as above; remark: listed apart in the source
Excerpt: as §1

B1: DI M3 heavy chain with K1 light chain (antibody, human IgG4, V domains shown)
VH: EVQLLESGGGLVQPGGSLRLSCAASGFTMSTSGMGIGWIRQTPGKGLEWVAHIWWDDDKYYNPSLKSRFTISKDTSKNTLYLQMNSLRAEDTAVYYCARNYYPYDAWFDYWGQGTLVTVS
VL: DIQMTQSPSSLSASVGDRVTITCSASSSINSNHLHWYQQKPGKAPKLLIYRTSILASGVPSRFSGSGSGTSFTLTISSLQPEDFATYYCQQGSNIPFTFGQGTKVEIKR
notes: also called DI M3 K1
- % response relative to H3K1 [1]: 149%
- % activity relative to H3K1 [2]: 137%
- Fc2/Fc4 [2]: 0.41

B2: DI M3 heavy chain with K1-C light chain (antibody, V domains shown)
VH: B1 VH
VL: B1 VL with S27T
notes: also called DI M3 K1-C
- % response relative to H3K1 [1]: 96%

B3: DI M3-B heavy chain with K1 light chain (antibody, V domains shown)
VH: B1 VH with S67A, K73R
VL: B1 VL
notes: also called DI M3-B K1
- % response relative to H3K1 [1]: 122%

B4: M3 heavy chain with K1-C light chain (antibody, human IgG4, V domains shown)
VH: B1 VH with A24F, M29L, I39V, T42A, K73R, L80V
VL: B1 VL with S27T
notes: also called M3 K1-C
- % response relative to H3K1 [1]: 100%
- % activity relative to H3K1 [2]: 97%
- Fc2/Fc4 [2]: 0.29

B5: M3-4 (X = I) heavy chain with K1 light chain (antibody, V domains shown)
VH: B1 VH with A24F, M29L, I39V, T42A, K73R, L80V, P103I
VL: DIQMTQSPSSLSASVGDRVTITCSASSSINSNHLHWYQQKPGKAPKLLIYRTSILASGVPSRFSGSGSGTSFTLTISSLQPEDFATYYCQQGSNIPFTFGQGTKVEIK
notes: Position counted within VH CDR3; also called M3-4 I
- % activity relative to M3K1 [3]: 106%

B6: M3-4 (X = K) heavy chain with K1 light chain (antibody, V domains shown)
VH: B1 VH with A24F, M29L, I39V, T42A, K73R, L80V, P103K
VL: B5 VL
notes: Position counted within VH CDR3; also called M3-4 K
- % activity relative to M3K1 [3]: 86%

B7: M3-4 (X = M) heavy chain with K1 light chain (antibody, V domains shown)
VH: B1 VH with A24F, M29L, I39V, T42A, K73R, L80V, P103M
VL: B5 VL
notes: Position counted within VH CDR3; also called M3-4 M
- % activity relative to M3K1 [3]: 101%

B8: M3-4 (X = N) heavy chain with K1 light chain (antibody, V domains shown)
VH: B1 VH with A24F, M29L, I39V, T42A, K73R, L80V, P103N
VL: B5 VL
notes: Position counted within VH CDR3; also called M3-4 N
- % activity relative to M3K1 [3]: 49%

B9: M3-4 (X = R) heavy chain with K1 light chain (antibody, V domains shown)
VH: B1 VH with A24F, M29L, I39V, T42A, K73R, L80V, P103R
VL: B5 VL
notes: Position counted within VH CDR3; also called M3-4 R
- % activity relative to M3K1 [3]: 106%

B10: M3-4 (X = S) heavy chain with K1 light chain (antibody, V domains shown)
VH: B1 VH with A24F, M29L, I39V, T42A, K73R, L80V, P103S
VL: B5 VL
notes: Position counted within VH CDR3; also called M3-4 S
- % activity relative to M3K1 [3]: 110%

B11: M3-4 (X = T) heavy chain with K1 light chain (antibody, V domains shown)
VH: B1 VH with A24F, M29L, I39V, T42A, K73R, L80V, P103T
VL: B5 VL
notes: Position counted within VH CDR3; also called M3-4 T
- % activity relative to M3K1 [3]: 103%

B12: M3-4 (X = V) heavy chain with K1 light chain (antibody, V domains shown)
VH: B1 VH with A24F, M29L, I39V, T42A, K73R, L80V, P103V
VL: B5 VL
notes: Position counted within VH CDR3; also called M3-4 V
- % activity relative to M3K1 [3]: 122%

B13: M3-4 (X = W) heavy chain with K1 light chain (antibody, V domains shown)
VH: B1 VH with A24F, M29L, I39V, T42A, K73R, L80V, P103W
VL: B5 VL
notes: Position counted within VH CDR3; also called M3-4 W
- % activity relative to M3K1 [3]: 93%

B14: M3-11 (X = A) heavy chain with K1 light chain (antibody, V domains shown)
VH: B1 VH with A24F, M29L, I39V, T42A, K73R, L80V, Y110A
VL: B5 VL
notes: Position counted within VH CDR3; also called M3-11 A
- % activity relative to M3K1 [4]: 93%

B15: M3-11 (X = C) heavy chain with K1 light chain (antibody, V domains shown)
VH: B1 VH with A24F, M29L, I39V, T42A, K73R, L80V, Y110C
VL: B5 VL
notes: Position counted within VH CDR3; also called M3-11 C
- % activity relative to M3K1 [4]: 64%

B16: M3-11 (X = D) heavy chain with K1 light chain (antibody, V domains shown)
VH: B1 VH with A24F, M29L, I39V, T42A, K73R, L80V, Y110D
VL: B5 VL
notes: Position counted within VH CDR3; also called M3-11 D
- % activity relative to M3K1 [4]: 67%

B17: M3-11 (X = E) heavy chain with K1 light chain (antibody, V domains shown)
VH: B1 VH with A24F, M29L, I39V, T42A, K73R, L80V, Y110E
VL: B5 VL
notes: Position counted within VH CDR3; also called M3-11 E
- % activity relative to M3K1 [4]: 105%
